T1: NOD mouse SIRP-α (mouse (NOD strain))
T1 chain: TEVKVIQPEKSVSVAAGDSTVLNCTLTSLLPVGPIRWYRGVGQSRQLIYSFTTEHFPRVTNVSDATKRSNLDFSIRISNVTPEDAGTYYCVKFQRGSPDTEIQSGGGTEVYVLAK

T2: BALBc mouse SIRP-α (mouse (BALB/c strain))
T2 chain: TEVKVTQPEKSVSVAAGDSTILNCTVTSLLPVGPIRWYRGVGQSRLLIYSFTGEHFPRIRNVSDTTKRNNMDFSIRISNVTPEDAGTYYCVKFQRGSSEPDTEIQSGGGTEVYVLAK

T3: cynomolgus SIRP-α D1 domain (SEQ ID NO:11) (cynomolgus, UniProt Q5TFQ8 30-148 (human entry), limits assumed)
T3 construct: also called cyno1
T3 chain: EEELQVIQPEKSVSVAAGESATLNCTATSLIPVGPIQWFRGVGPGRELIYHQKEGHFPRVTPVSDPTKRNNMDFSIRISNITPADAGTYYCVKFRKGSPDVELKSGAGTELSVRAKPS

T4: BL6 mouse SIRP-α (mouse (C57BL/6 strain), UniProt P97797 32-148)
T4 construct: also called C57BL/6
T4 sequence: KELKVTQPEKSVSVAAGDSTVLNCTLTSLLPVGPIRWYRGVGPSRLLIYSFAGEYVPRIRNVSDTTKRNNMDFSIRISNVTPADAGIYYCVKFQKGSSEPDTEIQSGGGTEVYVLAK

T5: cynomolgus SIRP-α (cynomolgus monkey, UniProt Q5TFQ8 30-148 (human entry), limits assumed)
T5 construct: also called cyno1
T5 chain: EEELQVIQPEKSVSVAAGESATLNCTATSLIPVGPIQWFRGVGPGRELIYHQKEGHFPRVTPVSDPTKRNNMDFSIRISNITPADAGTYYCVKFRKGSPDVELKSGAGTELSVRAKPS


Key:
[1] = molecular target: T1, NOD mouse SIRP-α; test: SPR
Summary of the method: (§1)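 KD values were derived as kd/ka from apparent rate constants obtained by globally fitting double-referenced data to a simple Langmuir model. The data came from a ProteOn XPR36 biosensor run at 25° C in PBS pH 7.4 with 0.01% Tween-20. There, purified antibodies sat on a GLC chip by amine coupling or on an NLC chip by biotinylated Protein A capture, and SIRP analytes were injected in one-shot kinetic mode at nominal concentrations set from A280 absorbance.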

[2] = molecular target: T6, human SIRP-α v1 (human, UniProt P78324 31-149); test: SPR
T6 construct: also called Human v1; Human V1
T6 sequence (P78324 31-149 limits assumed): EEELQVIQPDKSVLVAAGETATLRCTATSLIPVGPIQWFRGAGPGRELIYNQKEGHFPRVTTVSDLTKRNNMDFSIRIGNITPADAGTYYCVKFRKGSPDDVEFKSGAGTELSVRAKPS
Summary of the method: as §1

[3] = molecular target: T2, BALBc mouse SIRP-α; test: SPR
Summary of the method: as §1

[4] = molecular target: T3, cynomolgus SIRP-α D1 domain (SEQ ID …); test: SPR, antibody immobilised on GLC chip
Procedure: (§2) All experiments were performed at 25° C. using a SPR-based ProteOn XPR36 biosensor (BioRad, Inc, Hercules, Calif.) equipped with GLC or NLC sensor chips. […] Purification was carried out by standard Protein A affinity column chromatography and eluted antibodies were stored in PBS buffer.
(§3) For the method using GLC chip, the analytes were injected and flowed over anti-SIRPα antibodies immobilized (˜1000 RUs) on GLC chips using Proteon™ Amine Coupling Kit. For the immobilization step, GLC chip was activated with EDAC/Sulpho-NHS 1:1 (Biorad) diluted 1/100 for 300 s at 25 μL/min. Anti-SIRPα antibodies were diluted to 80 nM concentration in 10 mM sodium acetate buffer pH 4.5 and immobilized to the chip at 30 μL/min for 50 s. Chip was inactivated with ethanolamine for 300 s at 25 μL/min. The analytes (e.g., SIRP-α from different species, SIRP-β, SIRP-γ) were injected in a “one-shot” kinetic mode at nominal concentrations of 100, 33, 11, 3.7, 1.2 and 0 nM. Association times were monitored for 90 s at 100 μL/min, and dissociation times were monitored for 1200 s. The surfaces were regenerated with a 2:1 v/v blend of Pierce IgG elution buffer/4M NaCl.

[5] = molecular target: T7, human SIRP-α v1 D1 domain (human, UniProt P78324 31-149); test: SPR, antibody immobilised on GLC chip
T7 construct: also called human v1; human α v1
T7 sequence (P78324 31-149 limits assumed): as above
Procedure: as §2, §3

[6] = molecular target: T8, human SIRP-α v2 D1 domain (human); test: SPR, antibody immobilised on GLC chip
T8 construct: also called human v2; human α v2
T8 sequence (chain, as listed by the source limits assumed): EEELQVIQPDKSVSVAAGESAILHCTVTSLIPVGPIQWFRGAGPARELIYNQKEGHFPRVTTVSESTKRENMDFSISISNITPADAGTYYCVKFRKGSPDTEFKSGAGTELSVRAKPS
Procedure: as §2, §3

[7] = molecular target: T4, BL6 mouse SIRP-α; test: SPR, antibody on GLC chip
Summary of the method: (§4)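 SIRP analytes were run over antibody surfaces in PBS pH 7.4 with 0.01% Tween-20 at 25° C, using one-shot injections at 100, 33, 11, 3.7, 1.2 and 0 nM. The antibodies, purified by Protein A, had been amine-coupled (~1000 RU) to a GLC chip of a ProteOn XPR36 biosensor from an 80 nM solution in 10 mM sodium acetate pH 4.5. Association lasted 90 s at a flow of 100 μL/min, and dissociation lasted 1200 s. KD equals kd/ka, obtained by fitting double-referenced data globally to a Langmuir model.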

[8] = molecular target: T1, NOD mouse SIRP-α; test: SPR, antibody on GLC chip
Summary of the method: as §4

[9] = molecular target: T5, cynomolgus SIRP-α; test: SPR, antibody on GLC chip
Summary of the method: as §4

[10] = molecular target: T9, human SIRPβ isoform 1 (human, UniProt O00241 30-148); test: SPR, antibody on GLC chip
T9 construct: also called Beta; Human SIRPb
T9 sequence (O00241 30-148 limits assumed): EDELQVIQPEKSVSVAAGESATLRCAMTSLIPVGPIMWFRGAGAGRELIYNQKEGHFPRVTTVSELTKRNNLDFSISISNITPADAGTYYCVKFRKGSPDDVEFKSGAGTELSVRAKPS
Summary of the method: as §4

[11] = molecular target: T6, human SIRP-α v1; test: SPR, antibody on GLC chip
Summary of the method: as §4

[12] = molecular target: T10, human SIRPγ isoform 1 (human, UniProt Q9P1W8 29-147); test: SPR, antibody on GLC chip
T10 construct: also called Gamma; Human SIRPg
T10 sequence (Q9P1W8 29-147 limits assumed): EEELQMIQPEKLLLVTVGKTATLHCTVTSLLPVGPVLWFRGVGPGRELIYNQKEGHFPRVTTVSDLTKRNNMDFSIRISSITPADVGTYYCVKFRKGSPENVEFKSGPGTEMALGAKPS
Summary of the method: as §4

[13] = molecular target: T11, human SIRP-α v2 (human); test: SPR, antibody on GLC chip
T11 construct: also called Human v2; Human V2
T11 sequence (chain, as listed by the source limits assumed): as the sequence (chain, as listed by the source limits assumed) above
Summary of the method: as §4

[14] = molecular target: T2, BALBc mouse SIRP-α; test: SPR, antibody on GLC chip
Summary of the method: as §4

Binder | Kd [1] [nM] | Kd [2] [nM] | Kd [3] [nM] | Kd [4] [nM] | Kd [5] [nM] | Kd [6] [nM] | binding result [7] | binding result [8] | Kd [9] [nM] | Kd [10] [nM] | Kd [11] [nM] | Kd [12] [nM] | Kd [13] [nM] | binding result [14]
Hum8/AB21_HC_Mutall (antibody, V domains shown, also called Hum8/AB21mutall) VH: EVQLVESGGGVVQPGGSLRLSCAASGFTFSSNAMSWVRQAPGKGLEWVAGISAGGSDTYYPASVKGRFTISRDNSKNTLYLQMNSLRAEDTAVYYCARETWNHLFDYWGQGTLVTVSS VL: SYELTQPPSVSVSPGQTARITCSGGAYSSYYYAWYQQKPGQAPVLVIYSDSKRPSGIPERFSGSSSGTTVTLTISGVQAEDEADYYCGGYDQSSYTNPFGGGTKLTVL | 27.8 | 0.0201 | 71.2 |  |  |  |  |  |  |  |  |  |  | 
antibody 135 variant wt/mut V34M (antibody, human IgG1, V domains shown, Human IgG1 with L234A/L235A/G237A/N297A; Labels are in the order VL/VH) VH: EVQLVESGGGVVQPGGSLRLSCAASGFSFSIYAMSWVRQAPGKGLEWVSTIGADDTYYADSVKGRFTISRDNSKNTLYLQMNSLRAEDTAVYYCAKDSTVGWSGDFFDYWGQGTLVTVSS VL: EIVLTQSPATLSVSPGERVTFSCRASQNVRSDIAWYQQKPGQAPRLLIYAASSRDTGIPDRFSGSGSGTDFTLTISSLQSEDFGVYYCQQYYDWPPFTFGGGTKVEIK |  |  |  | 0.0794 | 0.15 | 0.0161 |  |  |  |  |  |  |  | 
antibody 135 variant, light chain wt / heavy chain Mut_V34M (antibody, V domains shown) VH: EVQLVESGGGVVQPGGSLRLSCAASGFSFSIYAMSWVRQAPGKGLEWVSTIGADDTYYADSVKGRFTISRDNSKNTLYLQMNSLRAEDTAVYYCAKDSTVGWSGDFFDYWGQGTLVTVSS VL: EIVLTQSPATLSVSPGERVTFSCRASQNVRSDIAWYQQKPGQAPRLLIYAASSRDTGIPDRFSGSGSGTDFTLTISSLQSEDFGVYYCQQYYDWPPFTFGGGTKVEIK |  |  |  |  |  |  | no binding | no binding | 0.0794 | 0.16 | 0.15 | 0.533 | 0.0161 | no binding
antibody 119 variant, light chain Mut / heavy chain Mut_V34M (antibody, V domains shown) VH: EVQLLESGGGVVQPGGSLRLSCAASGFSFSNFAMTWVRQAPGKGLEWVSTIGSGDTYYADSVKGRFTISRDNSKNTLYLQMNSLRAEDTAVYYCAKDSTVSWSGDFFDYWGQGTLVTVSS VL: EIVLTQSPATLSVSPGERATLSCRASQNVKNDLAWYQQKPGQAPRLLIYAARIRETGIPARFSGSGSGTEFTLTISSLQSEDFAVYYCQQYYDWPPFTFGGGTKVEIK |  |  |  |  |  |  | no binding | no binding | 0.118 | 0.337 | 0.215 | 0.263 | 0.0688 | no binding
antibody 119 variant, light chain Mut / heavy chain Mut (antibody, V domains shown) VH: EVQLLESGGGVVQPGGSLRLSCAASGFSFSNFAVTWVRQAPGKGLEWVSTIGSGDTYYADSVKGRFTISRDNSKNTLYLQMNSLRAEDTAVYYCAKDSTVSWSGDFFDYWGQGTLVTVSS VL: EIVLTQSPATLSVSPGERATLSCRASQNVKNDLAWYQQKPGQAPRLLIYAARIRETGIPARFSGSGSGTEFTLTISSLQSEDFAVYYCQQYYDWPPFTFGGGTKVEIK |  |  |  |  |  |  | no binding | no binding | 0.195 | 0.46 | 0.317 | 0.336 | 0.0875 | no binding

Source: patent US20210363269A1 (ALX ONCOLOGY, published 2021)
